We go through 2 molecules from paper PMC7340788, “Structure of the yeast Swi/Snf complex in a nucleosome free state” (Nature Communications, 2020).

Broadly, the stoichiometry N is a count of units in the complex or per binding partner.

B1: Swi3 (natural protein, S. cerevisiae, UniProt P32591 1-825, looked up)
chain: MENTLGEGSTVNASVDVDQHGNDNNSDSNANAAVAGVANTDTAGEESQQQDESLKDEATVPNTRDAESEAITVTAKQQPTMQANKLDSQETPSTEESRAQNVFGQDNEDSDNLFGETESSVSNNEANTPSIPTNPVDNENNKPAIKEDSTIQDSNGDVKNMEDVKIQKEEEPENNTVIEGVKEESQPDENTKEMDEVEEDDEDDDQPMISPDNSIFGDTKSESKQLGNTSSVANTPSEIPDAHKAEQEDIIEKTESVDKKVDSGEERNEQEREIMNDHSKSANPKKTTITRVEPETFEIPQAHEIVIPSYSKWFNLEKIHSIEVQSLPEFFTNRIPSKTPEVYMRYRNFMVNSYRLNPNEYFSVTTARRNVSGDAAALFRLHKFLTKWGLINYQVDSKLLPKNIEPPLTSQYSTRHDAPRGLFPFESYKPSVQLPDMAKLKKMMNTSDSESTLYKYLKESKRKYDEITHPPSTTDDENGDKNDNGGKMNNEVSTSTSMTGDANLLEEGETSRPLKKVKILEQIDENWSKEDLQKLLKGIQEFGADWYKVAKNVGNKSPEQCILRFLQLPIEDKFLYGDGNGKGDNDNGLGPLKYAPHLPFSKSENPVLSTIAFLVGLVNPKTVQSMTQRAIQSAESIKSQKEEISDQKPIEHIKEGSEIAISSLGYRSHIFATNEERQMNFLTNELIRLQMEKLDAKLNHLKKLEKFMELERKTLERQQENLLIQRLNFNQNSSKIVNVLSKCLNLISDSNINNSSVAEKEEIRSQIDHFKSMLSKPETLSIGKNPFNKPNIETGENHNGQSISNENDVKPISIEAPQFYRYWSA
notes: Swi3, subunit of the S. cerevisiae Swi/Snf complex; endogenous protein; two copies (chains A and B) in the model; also called Swi3A; Swi3B; source: endogenous, S. cerevisiae; purified as part of the Swi/Snf complex through Snf6-3Flag (ANTI-FLAG M2 resin, Superose 6)
B2: Swp82 (natural protein, S. cerevisiae, UniProt P43554 1-623, looked up)
chain: MLGEDEGNTVLEKGNNPSVKQGEVGAVFIVPKILIREHERVILKQILQILDQDELVQPPLDKFPYKKLELPKYIDELKTRDATNTSYKMIQLDAYGEKKVGSNGELFGGRHYLFNTFTFTAHMGVLLVLLQDVIKVLYQSNATHDEDEFIVQHDQILVMETSEEQTKFLAKNGVIPEESKGSFKYITARSAFVEFGASVIAGGQRIVDDYWESLAKKQNLSSHQRVFKLSTNLISKISLLRPSFQNNRISNANEISANTNNTCTISTSKFESQYPIVTEQPSAEIREAYIENFAKGEHISAIVPGQSISGTLELSAQFRVPRYHSKNSFQQALQMKAMDIPIGRHEELLAQYESQAPDGSASISLPNHIPSVNPSNKPIKRMLSSILDINVSSSKNKKSEENEMIKPMNKGQHKNNTSLNINGWKFESLPLKSAENSGKQQYYRGLPLYEKNTLLERLKQLTPNEIKELEHLHDAVFVNTGLQNVRKVRTKKWKKYWQYKAGIPIGLKRSQLDEFKNKYLKDVLAQTSVTTNFNEITNTDETITTKRVPNPNFLGNCNIKDFKPPYIYSHVNKVPQNVAGDKTAVKLDTEVKNTNANPVVATDPVAAKPDNLANFSNEVAMNN
notes: Swp82, subunit of the S. cerevisiae Swi/Snf complex; endogenous protein; For cryo-EM the complex was cross-linked with 1 mM BS3; source: endogenous, S. cerevisiae; purified as part of the Swi/Snf complex through Snf6-3Flag (ANTI-FLAG M2 resin, Superose 6)

Experiment in all cases: cryo-EM structure; endogenous Swi/Snf complex purified as a whole through Snf6-3Flag, nucleosome-free, cross-linked with 1 mM BS3, 20 mM HEPES pH 7.4, 350 mM NaCl; 4.1 Å average, 2.9 Å for the base module
The target in one series is T1, Snf2 (S. cerevisiae, UniProt P22082 1-1703).
T1 construct: Snf2, ATPase-containing subunit of the S. cerevisiae Swi/Snf complex; endogenous protein; Only the preHSA domain and the HSA helix are seen in the map; the ATPase domain is absent from the structure; For cryo-EM the complex was cross-linked with 1 mM BS3; source: endogenous, S. cerevisiae; purified as part of the Swi/Snf complex through Snf6-3Flag (ANTI-FLAG M2 resin, Superose 6)
Particulars: both partners purified.

Another series deals with T2, Snf5 (S. cerevisiae, UniProt P18480 1-905).
T2 construct: Snf5, subunit of the S. cerevisiae Swi/Snf complex; endogenous protein; For cryo-EM the complex was cross-linked with 1 mM BS3; source: endogenous, S. cerevisiae; purified as part of the Swi/Snf complex through Snf6-3Flag (ANTI-FLAG M2 resin, Superose 6)
Conditions: both partners purified.

For another series, the target named is T3, Swi1 (S. cerevisiae, UniProt P09547 1-1314).
T3 construct: Swi1, subunit of the S. cerevisiae Swi/Snf complex; endogenous protein; Only part of the chain is modelled (C-terminus with seven ARM repeats, α1, β1); For cryo-EM the complex was cross-linked with 1 mM BS3; source: endogenous, S. cerevisiae; purified as part of the Swi/Snf complex through Snf6-3Flag (ANTI-FLAG M2 resin, Superose 6)
T3 sequence (looked up): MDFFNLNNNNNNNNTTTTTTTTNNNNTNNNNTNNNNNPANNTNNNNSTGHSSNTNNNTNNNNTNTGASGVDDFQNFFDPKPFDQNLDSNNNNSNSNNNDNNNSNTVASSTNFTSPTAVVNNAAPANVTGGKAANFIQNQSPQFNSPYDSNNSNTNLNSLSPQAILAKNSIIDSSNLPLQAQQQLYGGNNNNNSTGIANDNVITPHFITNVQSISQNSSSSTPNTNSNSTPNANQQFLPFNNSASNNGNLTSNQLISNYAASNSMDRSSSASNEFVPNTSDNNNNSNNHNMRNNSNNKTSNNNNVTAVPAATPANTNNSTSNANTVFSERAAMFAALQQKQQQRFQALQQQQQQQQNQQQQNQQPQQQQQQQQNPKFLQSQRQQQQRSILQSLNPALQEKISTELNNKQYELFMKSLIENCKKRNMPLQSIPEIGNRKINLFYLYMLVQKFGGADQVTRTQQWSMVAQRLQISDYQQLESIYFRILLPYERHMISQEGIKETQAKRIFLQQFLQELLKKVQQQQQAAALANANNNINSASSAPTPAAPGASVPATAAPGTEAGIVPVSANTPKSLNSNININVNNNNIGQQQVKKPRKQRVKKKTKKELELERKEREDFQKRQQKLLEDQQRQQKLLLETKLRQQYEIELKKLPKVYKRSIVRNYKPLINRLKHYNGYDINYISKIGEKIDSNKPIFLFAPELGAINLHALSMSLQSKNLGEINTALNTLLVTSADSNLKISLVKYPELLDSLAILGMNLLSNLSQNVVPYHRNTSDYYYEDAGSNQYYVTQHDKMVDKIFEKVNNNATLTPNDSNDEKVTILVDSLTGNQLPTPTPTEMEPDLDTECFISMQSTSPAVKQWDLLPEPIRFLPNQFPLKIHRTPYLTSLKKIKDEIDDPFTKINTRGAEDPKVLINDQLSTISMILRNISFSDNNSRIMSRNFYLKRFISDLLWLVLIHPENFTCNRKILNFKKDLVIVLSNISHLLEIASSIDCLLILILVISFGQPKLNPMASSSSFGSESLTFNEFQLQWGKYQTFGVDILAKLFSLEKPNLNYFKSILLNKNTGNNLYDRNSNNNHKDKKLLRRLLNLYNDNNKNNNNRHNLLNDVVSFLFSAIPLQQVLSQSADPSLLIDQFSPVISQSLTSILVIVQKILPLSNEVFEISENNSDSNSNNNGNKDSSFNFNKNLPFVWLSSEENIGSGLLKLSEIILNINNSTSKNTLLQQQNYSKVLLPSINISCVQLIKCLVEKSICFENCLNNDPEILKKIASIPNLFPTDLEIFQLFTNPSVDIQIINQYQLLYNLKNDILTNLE
Conditions: both partners purified.

Series [1] concerns the molecule itself.
The series “Swi3” deals with B1. Conditions: both partners purified.

T2 sequence (P18480 whole entry): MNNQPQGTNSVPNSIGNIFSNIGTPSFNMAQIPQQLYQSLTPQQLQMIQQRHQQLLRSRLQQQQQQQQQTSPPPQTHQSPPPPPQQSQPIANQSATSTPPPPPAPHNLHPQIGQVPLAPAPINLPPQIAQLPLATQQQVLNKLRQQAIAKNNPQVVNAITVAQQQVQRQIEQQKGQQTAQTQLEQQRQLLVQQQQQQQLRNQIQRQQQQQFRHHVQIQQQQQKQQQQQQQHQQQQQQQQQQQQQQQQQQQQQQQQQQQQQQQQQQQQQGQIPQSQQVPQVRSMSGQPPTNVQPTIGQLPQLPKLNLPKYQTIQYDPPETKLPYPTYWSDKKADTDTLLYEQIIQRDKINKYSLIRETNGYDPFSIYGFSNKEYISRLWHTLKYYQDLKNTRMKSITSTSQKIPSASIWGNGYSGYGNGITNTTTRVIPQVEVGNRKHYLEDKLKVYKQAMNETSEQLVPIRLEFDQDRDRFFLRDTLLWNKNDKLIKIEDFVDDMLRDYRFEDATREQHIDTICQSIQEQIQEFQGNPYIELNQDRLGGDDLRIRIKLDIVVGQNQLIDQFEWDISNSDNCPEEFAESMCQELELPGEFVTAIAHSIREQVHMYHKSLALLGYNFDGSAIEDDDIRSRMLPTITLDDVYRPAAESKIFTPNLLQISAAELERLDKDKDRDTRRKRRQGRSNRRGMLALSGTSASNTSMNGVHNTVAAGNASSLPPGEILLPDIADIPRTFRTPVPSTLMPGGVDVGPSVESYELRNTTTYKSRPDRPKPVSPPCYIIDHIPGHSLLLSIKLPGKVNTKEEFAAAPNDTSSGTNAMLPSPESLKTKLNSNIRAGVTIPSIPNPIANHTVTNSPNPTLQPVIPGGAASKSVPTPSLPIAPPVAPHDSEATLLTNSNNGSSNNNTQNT
T1 sequence (P22082 whole entry, the tested form may be a part): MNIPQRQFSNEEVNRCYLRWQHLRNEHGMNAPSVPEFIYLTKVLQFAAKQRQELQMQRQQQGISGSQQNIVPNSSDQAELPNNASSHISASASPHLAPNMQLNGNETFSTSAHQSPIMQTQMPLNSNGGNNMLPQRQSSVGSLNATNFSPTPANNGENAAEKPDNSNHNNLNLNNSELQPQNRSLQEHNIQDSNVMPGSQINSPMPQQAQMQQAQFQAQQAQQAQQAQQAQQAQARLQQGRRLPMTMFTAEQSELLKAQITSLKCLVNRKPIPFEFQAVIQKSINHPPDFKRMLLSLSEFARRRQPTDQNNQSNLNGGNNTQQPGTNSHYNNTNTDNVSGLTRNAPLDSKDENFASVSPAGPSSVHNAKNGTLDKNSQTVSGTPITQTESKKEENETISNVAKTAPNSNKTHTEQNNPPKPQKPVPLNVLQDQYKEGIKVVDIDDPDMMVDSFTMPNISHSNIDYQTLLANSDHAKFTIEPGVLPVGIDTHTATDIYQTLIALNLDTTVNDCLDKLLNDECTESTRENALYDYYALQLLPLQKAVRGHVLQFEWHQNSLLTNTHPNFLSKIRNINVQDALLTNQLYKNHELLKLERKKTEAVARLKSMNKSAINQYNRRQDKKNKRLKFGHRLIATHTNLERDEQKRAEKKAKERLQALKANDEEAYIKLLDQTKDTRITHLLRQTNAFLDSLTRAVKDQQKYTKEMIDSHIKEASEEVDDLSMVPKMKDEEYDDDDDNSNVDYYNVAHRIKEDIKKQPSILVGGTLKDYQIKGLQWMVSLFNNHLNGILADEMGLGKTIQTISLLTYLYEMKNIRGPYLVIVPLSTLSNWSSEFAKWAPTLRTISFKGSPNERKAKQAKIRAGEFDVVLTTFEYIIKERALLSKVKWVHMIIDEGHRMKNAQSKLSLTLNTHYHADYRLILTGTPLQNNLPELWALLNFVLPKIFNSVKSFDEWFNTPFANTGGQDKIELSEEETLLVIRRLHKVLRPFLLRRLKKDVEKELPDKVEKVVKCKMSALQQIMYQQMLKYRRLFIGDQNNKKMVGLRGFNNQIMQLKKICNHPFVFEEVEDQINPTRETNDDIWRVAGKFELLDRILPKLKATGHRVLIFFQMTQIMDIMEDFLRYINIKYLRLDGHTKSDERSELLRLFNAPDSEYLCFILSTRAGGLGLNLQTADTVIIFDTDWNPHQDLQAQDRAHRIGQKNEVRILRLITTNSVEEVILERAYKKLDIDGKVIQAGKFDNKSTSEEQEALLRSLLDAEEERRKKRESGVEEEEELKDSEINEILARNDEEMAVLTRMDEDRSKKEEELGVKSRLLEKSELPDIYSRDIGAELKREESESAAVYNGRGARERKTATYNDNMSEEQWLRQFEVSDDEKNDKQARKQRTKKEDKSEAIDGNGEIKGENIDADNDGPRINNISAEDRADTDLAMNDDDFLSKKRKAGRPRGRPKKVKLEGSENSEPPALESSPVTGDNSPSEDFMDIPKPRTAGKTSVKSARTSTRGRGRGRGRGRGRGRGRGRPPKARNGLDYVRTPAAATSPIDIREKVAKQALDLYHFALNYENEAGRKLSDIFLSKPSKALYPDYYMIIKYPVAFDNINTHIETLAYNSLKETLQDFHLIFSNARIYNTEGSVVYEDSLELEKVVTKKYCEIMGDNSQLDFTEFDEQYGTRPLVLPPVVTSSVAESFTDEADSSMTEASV

On to B1, for which the binding result with Snf2, in the series with Snf5 and in the series with Swi1 was “binds” throughout. Further, the “stoichiometry N” value in series [1] worked out at 2.
Regarding B2, the binding result with Snf2, with Snf5 and with Swi3 was “binds” each time.
